The target of test [1] is T1, human insulin receptor complexed with human insulin (human, UniProt P06213 28-1382; P01308 25-54; P01308 90-110).
T1 construct: whole, on cells;mature; also called hINSR-hINS complex; INS/INSR complex
As to the kind of experiment: FACS, serum-starved CHO-K1 cells expressing human INSR, with insulin. Background: A flow cytometer gives signals particle by particle.

The next test deals with T2, human insulin receptor (human, UniProt P06213 28-1382).
T2 construct: whole, on cells; Uncomplexed receptor on serum-starved cells (CHOK1 transfectants or IM-9); also called hINSR; INSR
The experiment in a line: FACS, serum-starved CHO-K1 cells expressing human INSR, no insulin.

Test [2] addresses T1, human insulin receptor complexed with …. As to the kind of experiment: FACS, CHO-K1 human INSR cells, signal with insulin divided by signal without insulin.
Procedure: (§1) Twenty five microliter aliquots of cells were plated into 96 well plates, mixed with 25 ul of antibody or PPE and incubated on ice for 1 h.
(§2) The cells were then washed once with FACS buffer and the binding of the antibody was detected by the addition of 25 ul of an appropriate fluorochrome-conjugated secondary antibody. […] After a final 15 min incubation on ice the cells were washed and the pellets resuspended in FACS buffer. The cells were analyzed on a FACSCAN™ (Becton-Dickinson, Milipitas, Calif.) and the data analyzed in both FLOWJO™ (Treestar, Ashland, Oreg.) and Microsoft Excel™.
Test [3] deals with T3, mouse insulin receptor complexed with human insulin (mouse; human, UniProt P15208 28-1372; P01308 25-54; P01308 90-110).
T3 construct: whole, on cells;mature; also called muINSR/hINS complex
As to the kind of experiment: FACS, serum-starved CHO-K1 cells expressing mouse INSR, with insulin.

Test [4] addresses T4, mouse insulin receptor (mouse, UniProt P15208 28-1372).
T4 construct: whole, on cells; also called muINSR; mINSR
The experiment in a line: FACS, serum-starved CHO-K1 cells expressing mouse INSR, no insulin.

For test [5], the target named is T3, mouse insulin receptor complexed with …. As to the kind of experiment: FACS, CHO-K1 mouse INSR cells, signal with insulin divided by signal without insulin.
Procedure: as §1, §2
The target is the same in test [6]. The experiment in a line: FACS, serum-starved CHO-K1 cells expressing mouse INSR, with insulin [cont'd].
Procedure: as §1, §2
Test [7] shares this target. The experiment in a line: FACS, CHO-K1 mouse INSR cells, signal with insulin divided by signal without insulin [cont'd].
Procedure: as §1, §2
Test [8] has as its target T4, mouse insulin receptor. As to the kind of experiment: FACS, serum-starved CHO-K1 cells expressing mouse INSR, no insulin [cont'd].
Procedure: as §1, §2

B1: Ab056 (antibody, IgG2, V domains shown)
VH: QVQLVQSGSEVKKPGASVKVSCKASGYTFTNSYMHWVRQAPGQGLEWMGIINPSAGTSYAQKFQGRVTMTRDTSTSTVYMELSSLKSEDTAVYYCARDVGWLPGDYWGQGTLVTVSS
VL: QSALTQPASVSESPGQSITISCTGTGSDIGTYNLVSWYQHHPGKAPKLMIYEVTKRPSGVSNRFSGSKSGNTASLTISGLQAEDEADYYCSSYTSSSTLYVFGTGTKLTVL
notes: also called XPA.015.199
In the case of B1, the “FACS area under log transformed data MFI” value in test [1] amounted to 927; with human insulin receptor, 1110. In addition, the “FACS area under log transformed data MFI ratio (+insulin/-insulin)” value in test [2] was 0.84.

B2: Ab052 (antibody, IgG2, V domains shown)
VH: EVQLVQSGAEVKKPGESLKISCKGSGYRFTSYWIGWVRQMPGRGLEWMGIIYPGDSDTRYSPSFQGQVTISVDKSISTAYLQWSSLKASDTAMYYCATHHASGRGLDPWGQGTLVTVSS
VL: QAMLTQPASLSASPGASASLTCTLRSGINVVAYNIYWYRQKSGSPPQSVLRYKSDSDSERDSGVPSRFSGSKDVSANAGILLISGLQSEDEADYYCLIWHNSAWVFGGGTQLTVL
notes: also called XPA.015.195
Consider B2, for which the “FACS area under log transformed data MFI” value in test [3] is 397; with mouse insulin receptor [4], 892; with human insulin receptor, 445. For the same molecule, in test [5], the “FACS area under log transformed data MFI ratio (+insulin/-insulin)” value came to 0.45.

B3: Ab081 (antibody, IgG2, V domains shown)
VH: EVQLVETGGGVVQPGRSLRLSCAASGFTFSSYAMHWVRQAPGKGLEWVAVISYDGSNKYYADSVKGRFTISRDNSKNTLYLQMNSLRAEDTAVYYCARHEWGFGMDVWGQGTTVTVSS
VL: DVVMTQSPLSLSVTLGQPASISCRSSLSLVYGDENTYLNWFQQRPGQSPRRLLYKVSDRDSGVPDRFSGSGSGTDFTLKISRVEADDVGVYYCMQGTHWPYTFGQGTKLEIK
notes: Negative modulator; also called XPA.015.247
B3: the results for the “FACS area under log transformed data MFI” value (in test [6]; with mouse insulin receptor [8]) were 125 and 189, respectively. For the same molecule, the “FACS area under log transformed data MFI ratio (+insulin/-insulin)” value in [7] came out at 0.66.

B4: Ab060 (antibody, IgG2, V domains shown)
VH: QMQLVQSGAEVKKPGSSVKVSCKASGGTFSSYAISWVRQAPGQGLEWMGIINPSGGSTSYAQKFQGRVTMTRDRSTSTVYMELSSLTSEDTAVYYCVRDNHGWSFDYWGQGTLVTVSS
VL: QAVLTQPASLSASPGESARLTCTLPSDINVRYYNIYWYQQKPGSPPRYLLYYYSDSNKDQGSGVPSRFSGSKDVSTNTGILVISGLQSEDEAEYYCMTWSSNGSGVFGGGTQLTVL
notes: also called XPA.015.207
With B4, the “FACS area under log transformed data MFI” value in test [3] came out at 388; with mouse insulin receptor [4], 210; in test [1], 308; with human insulin receptor, 460. Besides, the “FACS area under log transformed data MFI ratio (+insulin/-insulin)” value in test [5] was found to be 1.85; in [2], 0.67.

B5: Ab055 (antibody, IgG2, V domains shown)
VH: QVQLVQSGAEVKKPGSSVKVSCKASGGTFSSYAISWVRQAPGQGLEWMGGIIPIFGTANYAQKFQGRVTITADESTSTAYMELSSLRSEDTAVYYCARGQGWLRFYGMDVWGQGTTVTVSS
VL: SYELTQLPSVSVSPGQTARITCSGDALPNKYAYWYQQKSGQAPVLVIYEDTRRPSEIPERFSASSSGTMATLTISGAQVEDEAEYYCYSTDSSGNERVFGGGTKLTVL
notes: also called XPA.015.198
As for B5, the “FACS area under log transformed data MFI” value in test [3] worked out at 1050; with mouse insulin receptor [4] it was 1300; in test [1] it was 759; in the test with human insulin receptor it was 1190. The results for the “FACS area under log transformed data MFI ratio (+insulin/-insulin)” value in test [5] and in test [2] were 0.81 and 0.64, respectively.

B6: Ab067 (antibody, V domains shown)
VH: EVQLVQSGAEVKKPGSSVKVSCKASGGTFSSYAISWVRQAPGQGLEWMGGIIPIFGTANYAQKFQGRVTITADESTSTAYMELSSLRSEDTAVYYCARASGDYDFWSGYYGAEYFQHWGQGTLVTVSS
VL: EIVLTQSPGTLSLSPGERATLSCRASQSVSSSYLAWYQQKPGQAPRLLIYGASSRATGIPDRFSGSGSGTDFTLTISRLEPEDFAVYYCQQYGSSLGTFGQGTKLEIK
notes: also called XPA.015.216
For B6, the “FACS area under log transformed data MFI” value in [3] stood at 786; with mouse insulin receptor [4] it was 1280; in [1], 1060; in the test with human insulin receptor, 1540. Further, the “FACS area under log transformed data MFI ratio (+insulin/-insulin)” value in [5] was found to be 0.61; in test [2] it was 0.69.

B7: Ab066 (antibody, IgG2, V domains shown)
VH: EVQLVQSGAEVKKPGSSVKVSCKASGGTFSSYAISWVRQAPGQGLEWMGGIIPIFGTANYAQKFQGRVTITADKSTSTAYMELSRLRSDDTAVYYCARDASYGGNSEGFDYWGQGTLVTVSS
VL: SSELTQDPAVSVAVGQSVRITCQGDSLKNFYATWYQQRPGQAPLLVIFGKNNRPSGIPDRFSGSSSGNTASLTVTGAQADDEADYYCNSPDSSNKLVVFGGGTKLTVL
notes: also called XPA.015.215
With B7, the “FACS area under log transformed data MFI” value is 1140 in test [3], 1520 with mouse insulin receptor [4], 1160 in test [1] and 1560 with human insulin receptor. In addition, the “FACS area under log transformed data MFI ratio (+insulin/-insulin)” value was determined as 0.76 in test [5] and 0.74 in test [2].

B8: Ab068 (antibody, IgG2, V domains shown)
VH: EVQLVQSGAEVKQPGSSVKVSCKASGGSFNSYTFSWVRQAPGQGLEWMGWISAYNGGTNYFANYALKFQGRVTMTTDTSTGTAYMELRSLRSDDTAVYYCARVRDSWSHEDYSYYYYMDVWGKGTTVTVSS
VL: DVVMTQTPLSLSVTPGQPASISCKASQSLLYTNGDTYVSWYVQKPGQAPQLLFSDVSSRFFGVPDRFSASGSGTDFTLKISRVEAEDVGVYYCVQAMYLPLVFGQGTKVEIK
notes: also called XPA.015.217
For B8, the “FACS area under log transformed data MFI” value in [3] came to 445; with mouse insulin receptor [4], 803; in test [1], 1030; with human insulin receptor it was 1420. Also, the entries for the “FACS area under log transformed data MFI ratio (+insulin/-insulin)” value in [5] and in test [2] were 0.55 and 0.72, respectively.

B9: Ab051 (antibody, IgG2, V domains shown)
VH: QVQLVQSGAEVKKPGSSVKVSCKASGGTFSSYAISWVRQAPGQGLEWMGGIIPIFGTANYAQKFQGRVTITADESTSTAYMELSSLRSEDTAVYYCAGKLYSRDYWYFDLWGRGTLVTVSS
VL: SSELTQDPAVSVALGQTVRITCQGNSLRSFYATWYQQKPGQAPVLVIYGKNIRPSGIPDRFSGSNSGDTASLTITGTQAEDEADYYCNSRDNNRNHLLFAGGTKVTVL
notes: also called XPA.015.194
As to B9, the “FACS area under log transformed data MFI” value is 470 in test [3], 663 in the test with mouse insulin receptor [4], 378 in test [1] and 554 with human insulin receptor. Moreover, the “FACS area under log transformed data MFI ratio (+insulin/-insulin)” value in [5] turned out to be 0.71; in test [2] it was 0.68.

B10: Ab064 (antibody, IgG2, V domains shown)
VH: QVQLVQSGAEVKKPGESLKISCKGSGFSFPSYWIGWVRQMPGKGLELVGIIYPGDSDIRYSPSFQGQVTISADTSISTVYLQWSSLQTTDTATYYCARGGFNWFDPWGQGTLVTVSS
VL: QAVVTQEPSLTVSPGGTVTLTCASSTGAVTSGYYPNWFQQKPGQAPRALIYSTSNKHSWTPARFSGSLLGGKAALTLSGVQPEDEAEYYCLLYYGGAQPWVFGGGTQLTVL
notes: also called XPA.015.213
B10: the “FACS area under log transformed data MFI” value in [3] was 813; with mouse insulin receptor [4], 1020; in [1], 1270; with human insulin receptor it was 1710. Moreover, the entries for the “FACS area under log transformed data MFI ratio (+insulin/-insulin)” value in [5] and in [2] were 0.8 and 0.74, respectively.

B11: Ab054 (antibody, IgG2, V domains shown)
VH: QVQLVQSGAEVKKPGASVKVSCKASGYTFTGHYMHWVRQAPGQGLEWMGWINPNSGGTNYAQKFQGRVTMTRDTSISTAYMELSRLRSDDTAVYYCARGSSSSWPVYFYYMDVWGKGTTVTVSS
VL: QSALTQPRSVSESPGKTVTISCTGSGGSIGSNYVQWYQQRPGSAPTTVIFEDNRRPSGVPDRFSGSIHSSSNSASLTISGLKTEDEADYYCQSYVGTIVVFGGGTKVTVL
notes: also called XPA.015.197
Take B11: the “FACS area under log transformed data MFI” value stood at 519 in [3], 1030 with mouse insulin receptor [4], 356 in test [1] and 1130 in the test with human insulin receptor. In addition, the entries for the “FACS area under log transformed data MFI ratio (+insulin/-insulin)” value in [5] and in [2] were 0.51 and 0.32, respectively.

B12: Ab063 (antibody, IgG2, V domains shown)
VH: QVQLQQSGPGLVKPSQTLSLTCAISGDSVSSNSAAWNWIRQSPSRGLEWLGRTYYRSKWYTDYALSVKSRITINPDTSKNQFSLHLNSVTPEDTAVYYCAREGWLGYFDFWGQGTLVTVSS
VL: SSELTQPPSVSVAPGKTATITCGGDNIASKSVHWYQQKPGQAPVLVLYDDSVRPSDIPERFSGSNSANTATLTLTRVEAGDEGEYYCQVWDVRSDHPFFGPGTKVTVL
notes: also called XPA.015.212
Regarding B12, the “FACS area under log transformed data MFI” value in test [3] was 733; with mouse insulin receptor [4], 1020; in test [1], 674; with human insulin receptor, 943. The “FACS area under log transformed data MFI ratio (+insulin/-insulin)” value was determined as 0.72 in test [5] and 0.71 in test [2].
